Here are results for 167 variants from the RNAGym collection of RNA variant scans (doi:10.7554/elife.80360).

B1: CPEB3 Ribozyme (parent)
chain: GGGGGCCACAGCAGAAGCGUUCACGUCGCGGCCCCUGUCAGAUUCUGGUGAAUCUGCGAAUUCUGCUGU

In this series the parent is B1. The experiment in a line: self-cleavage, relative activity (ratio to wild type); higher = more cleavage; co-transcriptional.
With G5A U55A, the self-cleavage is 0.69.

Take G5A U55C: the self-cleavage is 0.403. To G5A U61C belongs 0.299. In the case of G5A U61A it was 0.351; in that of G5A U61G, 0.468; in that of G5C G50A, 0.202. To G5C G50C belongs 0.182; to G5A G25C, 0.137. Consider G5A G25A, for which the self-cleavage stood at 0.114. To G5A G25U belongs 0.0968; to G5A G58C, 0.758. In the case of G5A G58A it was 0.723; in that of G5A G58U, 0.906. To G5A C27A belongs 0.141; to G5A C27U, 0.201. For the variant G5A C27G, the self-cleavage amounted to 0.104. To G5C G25U belongs 0.0626. To G5C G25C belongs 0.0981; to G5C U43G, 0.219. To G5C U43C belongs 0.173. In the case of G5C C22U, the self-cleavage amounted to 0.0752.

Consider G5C C22G, for which the self-cleavage amounted to 0.0735. Turning to G5A C34G, the self-cleavage amounted to 0.155. In the case of G5A C22G it was 0.0902; in that of G5A C22U, 0.129. To G5C C29U belongs 0.133; to G5C C29A, 0.144. In the case of G5A C6U it was 0.189.

On to G5A C6A, for which the self-cleavage turned out to be 0.103. To G5A A60U belongs 0.247; to G5A A60G, 0.515.

Take G5A A60C: the self-cleavage was 0.251.

G5C U69G: the self-cleavage stood at 0.437. In the case of G5C U69A it was 0.307; in that of G5C U62A, 0.169. In the case of G5A A59C it was 0.259; in that of G5A A59G, 0.753. In the case of G4U U46G it was 0.803.

With G4U U46C, the self-cleavage was 0.751. In the case of G4U U46A it was 0.746; in that of G5A G31U, 0.221. Regarding G5A G31C, the self-cleavage was found to be 0.118. To G5A G31A belongs 0.158; to G5A G65C, 0.532. As for G5A G65A, the self-cleavage stood at 0.812. To G5C C66U belongs 0.151; to G5A C39G, 0.752. In the case of G5A C39A it was 0.533.

As to G4U C66U, the self-cleavage stood at 0.771. In the case of G4U C66A it was 0.468; in that of G5C A23G, 0.144; in that of G5C A23C, 0.228. In the case of G5C A23U it was 0.333. As for G4U U62C, the self-cleavage was determined as 0.369. To G4U U62G belongs 0.349; to G5C A10G, 0.289. In the case of G5C A10C it was 0.176; in that of G5A U62C, 0.423; in that of G5C A51C, 0.152. In the case of G5C A51G, the self-cleavage was found to be 0.228. To G5C A51U belongs 0.269. To G5C C18U belongs 0.148.

Take G5C C18G: the self-cleavage amounted to 0.12. To G5C C18A belongs 0.097. In the case of G5A U64A it was 0.71; in that of G5A U64G, 0.729. To G5A U64C belongs 0.676. On to G5A G11U, for which the self-cleavage worked out at 0.778. Consider G5A G11C, for which the self-cleavage was determined as 0.578. In the case of G5C U21A it was 0.134. To G5C U21G belongs 0.114; to G5C U21C, 0.149.

In the case of G5A G14C, the self-cleavage was found to be 0.159. In the case of G5A G14U it was 0.365; in that of G5A G14A, 0.325; in that of G4U U36G, 0.492. In the case of G4U U36C it was 0.651. In the case of G4U U36A it was 0.122; in that of G5A A13C, 0.637. For the variant G5A C54G, the self-cleavage was 0.394. Take G5A C54U: the self-cleavage stood at 0.893. In the case of G5A C54A it was 0.546.

For the variant G4U G37C, the self-cleavage is 0.169. To G4U G37A belongs 0.144; to G5A C32A, 0.847. To G5A G37C belongs 0.171; to G5A G37U, 0.165; to G5A C12G, 0.488.

Take G5A C12A: the self-cleavage worked out at 0.532.

On to G5A C45U, for which the self-cleavage was found to be 0.913. In the case of G5A C45A it was 0.832. As to G5A C45G, the self-cleavage was determined as 0.823. To G5A G48A belongs 0.918; to G5C U44C, 0.179; to G5C U61A, 0.193. Take G5C U61G: the self-cleavage came to 0.153.

G5C U61C: the self-cleavage is 0.13.

As for G5A C66G, the self-cleavage worked out at 0.826.

In the case of G5A C66A, the self-cleavage came out at 0.727. For G5C C9A, the self-cleavage is 0.386. Take G5C C9U: the self-cleavage came out at 0.412. In the case of G5C C9G it was 0.487; in that of G5C C39G, 0.199. To G5C C39U belongs 0.184; to G5C C39A, 0.134. As for G5A U46C, the self-cleavage turned out to be 0.945.

In the case of G5C C63G, the self-cleavage was 0.109.

On to G5C C63U, for which the self-cleavage stood at 0.207. To G5C C63A belongs 0.119; to G5A U43A, 0.721.

On to G5A U43C, for which the self-cleavage came to 0.77. In the case of G5A U43G, the self-cleavage stood at 0.578.

With G4U G31U, the self-cleavage was 0.126. In the case of G4U G31C it was 0.0584.

As for G4U G47C, the self-cleavage was 0.793.

As to G4U G47A, the self-cleavage is 0.804. In the case of G4U G47U it was 0.873; in that of G5C G65A, 0.158; in that of G5C G65C, 0.106. To G5C G65U belongs 0.0855; to G5C A8G, 0.242; to G5C A8U, 0.156. To G5C A8C belongs 0.199; to G5C G58U, 0.207; to G5C C34U, 0.3. In the case of G5C C34G, the self-cleavage amounted to 0.22. In the case of G5C C34A it was 0.268.

As to G5C U20G, the self-cleavage stood at 0.0813.

In the case of G5C C35A, the self-cleavage came to 0.0866.

G5A C35U: the self-cleavage was found to be 0.365. Consider G5A C35A, for which the self-cleavage is 0.203. To G5A C35G belongs 0.134; to G5C G48A, 0.217. For the variant G5A U69G, the self-cleavage worked out at 1.03. To G5A U69C belongs 1.05; to G5A U69A, 0.994. In the case of G5A G68C it was 0.947; in that of G5A G68U, 0.948. In the case of G5A G68A it was 0.976.

Turning to G5C A52C, the self-cleavage turned out to be 0.259. In the case of G5C A52G it was 0.287; in that of G5C A52U, 0.123. To G4U G65A belongs 0.521; to G5A C9A, 1.01; to G4U U55C, 0.298. To G4U U55G belongs 0.203; to G4U U55A, 0.496; to G4U G25A, 0.101. For the variant G4U G25U, the self-cleavage was 0.0695. To G4U G25C belongs 0.116; to G4U G5U, 0.0723; to G5C C54G, 0.143. As for G5C C54U, the self-cleavage came out at 0.219. To G5A G28C belongs 0.124. In the case of G5A G28U it was 0.144; in that of G5A G28A, 0.1. To G5A A10C belongs 0.914; to G5A A10U, 0.953.

Turning to G5A A10G, the self-cleavage worked out at 0.915. In the case of G5A G56U, the self-cleavage amounted to 0.772. In the case of G5A G56A it was 0.759. G5A G56C: the self-cleavage came to 0.407. Consider G5A U20G, for which the self-cleavage turned out to be 0.111. In the case of G5A U20C it was 0.109; in that of G5C G11U, 0.108; in that of G4U G48A, 0.856. Turning to G5C U67A, the self-cleavage came out at 0.338.
